Assay results taken from the supplement of paper PMC9116672.
± gives the standard deviation of the averaged measurements or the uncertainty stated by the source.

Experiments:
[1] = duplex formation free energy ΔG50 (Van't Hoff fit of HRM Tm); higher = less stable duplex; settings: temperature for dG: 50 °C, NaCl: 500 mM (unadjusted)
Outline: (§1)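 Four replicate samples of each duplex, annealed 1:1 from phosphodiester or phosphorothioate strands (the latter mixed Rp/Sp), were melted at 1–20 μM in 1× NNE buffer (500 mM NaCl, pH 7.0) with 1× EvaGreen, heating from 37 to 97°C at 0.1°C/s on a LightCycler96. Tm is the peak of -dF/dT, and a linear Van't Hoff regression of 1/Tm against ln(CT/4) gives enthalpy, entropy and extrapolated free energy, with no salt adjustment and errors given as fit standard deviations. The free energy extrapolation is to 50°C.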

[2] = duplex melting temperature (HRM, EvaGreen); higher = more stable duplex
Outline: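 After 1:1 annealing at 25 μM, complementary phosphodiester or phosphorothioate strands (Rp/Sp mixtures) were brought to 1–20 μM duplex in NNE buffer (500 mM NaCl, pH 7.0) with 1× EvaGreen and heated at 0.1°C/s from 37°C to 97°C while a LightCycler96 monitored fluorescence (470/514 nm). The melting temperature is the negative dF/dT peak reported by the instrument software, averaged over replicates with a clear peak.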

[3] = duplex formation enthalpy ΔH (Van't Hoff fit of HRM Tm); higher = less exothermic duplex formation; settings: temperature for dG: 50 °C, NaCl: 500 mM (unadjusted)
Outline: as §1

[4] = duplex formation entropy ΔS (Van't Hoff fit of HRM Tm); higher = smaller entropy loss on duplex formation; settings: temperature for dG: 50 °C, NaCl: 500 mM (unadjusted)
Outline: as §1

[5] = backbone: PO-PO (both strands phosphodiester DNA)
[6] = backbone: PS-PO (listed strand fully phosphorothioate, complement phosphodiester)
[7] = backbone: PS-PS (both strands fully phosphorothioate)
[8] = duplex concentration 1 µM, backbone: PO-PO (both strands phosphodiester DNA)
[9] = duplex concentration 1 µM, backbone: PS-PS (both strands fully phosphorothioate)
[10] = duplex concentration 2.5 µM, backbone: PO-PO (both strands phosphodiester DNA)
[11] = duplex concentration 2.5 µM, backbone: PS-PO (listed strand fully phosphorothioate, complement phosphodiester)
[12] = duplex concentration 2.5 µM, backbone: PS-PS (both strands fully phosphorothioate)
[13] = duplex concentration 5 µM, backbone: PO-PO (both strands phosphodiester DNA)
[14] = duplex concentration 5 µM, backbone: PS-PO (listed strand fully phosphorothioate, complement phosphodiester)
[15] = duplex concentration 5 µM, backbone: PS-PS (both strands fully phosphorothioate)
[16] = duplex concentration 7.5 µM, backbone: PO-PO (both strands phosphodiester DNA)
[17] = duplex concentration 7.5 µM, backbone: PS-PO (listed strand fully phosphorothioate, complement phosphodiester)
[18] = duplex concentration 7.5 µM, backbone: PS-PS (both strands fully phosphorothioate)
[19] = duplex concentration 10 µM, backbone: PO-PO (both strands phosphodiester DNA)
[20] = duplex concentration 10 µM, backbone: PS-PO (listed strand fully phosphorothioate, complement phosphodiester)
[21] = duplex concentration 10 µM, backbone: PS-PS (both strands fully phosphorothioate)
[22] = duplex concentration 15 µM, backbone: PO-PO (both strands phosphodiester DNA)
[23] = duplex concentration 15 µM, backbone: PS-PO (listed strand fully phosphorothioate, complement phosphodiester)
[24] = duplex concentration 15 µM, backbone: PS-PS (both strands fully phosphorothioate)
[25] = duplex concentration 20 µM, backbone: PO-PO (both strands phosphodiester DNA)
[26] = duplex concentration 20 µM, backbone: PS-PO (listed strand fully phosphorothioate, complement phosphodiester)
[27] = duplex concentration 20 µM, backbone: PS-PS (both strands fully phosphorothioate)
[28] = duplex concentration 1 µM, backbone: PS-PO (listed strand fully phosphorothioate, complement phosphodiester)

Sequence	duplex formation free energy ΔG50 [1, 5] [kcal/mol]	duplex formation free energy ΔG50 [1, 6] [kcal/mol]	duplex formation free energy ΔG50 [1, 7] [kcal/mol]	duplex melting temperature [2, 8] [°C]	duplex melting temperature [2, 9] [°C]	duplex melting temperature [2, 10] [°C]	duplex melting temperature [2, 11] [°C]	duplex melting temperature [2, 12] [°C]	duplex melting temperature [2, 13] [°C]	duplex melting temperature [2, 14] [°C]	duplex melting temperature [2, 15] [°C]	duplex melting temperature [2, 16] [°C]	duplex melting temperature [2, 17] [°C]	duplex melting temperature [2, 18] [°C]	duplex melting temperature [2, 19] [°C]	duplex melting temperature [2, 20] [°C]	duplex melting temperature [2, 21] [°C]	duplex melting temperature [2, 22] [°C]	duplex melting temperature [2, 23] [°C]	duplex melting temperature [2, 24] [°C]	duplex melting temperature [2, 25] [°C]	duplex melting temperature [2, 26] [°C]	duplex melting temperature [2, 27] [°C]	duplex formation enthalpy ΔH [3, 5] [kcal/mol]	duplex formation enthalpy ΔH [3, 6] [kcal/mol]	duplex formation enthalpy ΔH [3, 7] [kcal/mol]	duplex formation entropy ΔS [4, 5] [cal/mol/K]	duplex formation entropy ΔS [4, 6] [cal/mol/K]	duplex formation entropy ΔS [4, 7] [cal/mol/K]	duplex melting temperature [2, 28] [°C]
GAACTGCCACTACCAA	-12.27 ± 0.11	-11.04 ± 0.059	-9.573 ± 0.046	63.2	48.68 ± 0.086	64.85 ± 0.39	58.65 ± 0.087	52.19 ± 0.14	67.25 ± 0.085	60.93 ± 0.068	54.589 ± 0.051	68.57 ± 0.17	62.25 ± 0.15	55.833 ± 0.044	69.531 ± 0.05	63.17 ± 0.12	56.65 ± 0.09	71 ± 0.09	64.25 ± 0.11	57.7 ± 0.15	71.922 ± 0.013	65.26 ± 0.12	58.53 ± 0.13	-69.8 ± 2	-70.8 ± 1.6	-65.1 ± 2.6	-178 ± 5.8	-185 ± 4.7	-172 ± 7.9	
GATCTCTCTATCATCGTTTATTGGGTAT	-18.9 ± 0.91	-14.3 ± 0.18	-11.5 ± 0.081	73.08 ± 0.33	55.1 ± 0.83	73.89 ± 0.35	64.3 ± 0.58	57.06 ± 0.4	74.81 ± 0.38	65.57 ± 0.42	58.33 ± 0.34	75.52 ± 0.2	66.23 ± 0.5	59.33 ± 0.081	76.276 ± 0.075	66.83 ± 0.22	59.89 ± 0.23	77.239 ± 0.047	67.61 ± 0.095	60.59 ± 0.19	77.914 ± 0.069	68.11 ± 0.096	61.27 ± 0.12	-141 ± 12	-122 ± 3.9	-109 ± 3	-377 ± 36	-335 ± 11	-301 ± 9	62.69 ± 0.48
CGTGCAGCACTACTTG	-12.8 ± 0.17	-11.31 ± 0.067	-9.892 ± 0.075		50.09 ± 0.18	67.58 ± 0.38	60.02 ± 0.13	53.82 ± 0.069	69.83 ± 0.28	62.35 ± 0.23	56.17 ± 0.085	71.17 ± 0.15	63.49 ± 0.13	57.1 ± 0.12	72.2 ± 0.18	64.33 ± 0.093	57.92 ± 0.08	73.4 ± 0.13	65.6 ± 0.099	59.07 ± 0.11	74.39 ± 0.17	66.47 ± 0.25	59.74 ± 0.13	-71.3 ± 2.6	-71.3 ± 1.7	-67.6 ± 3.5	-181 ± 7.5	-186 ± 5	-179 ± 11	56.81 ± 0.29
CCGTTGCTGCTAGG	-12.3 ± 0.25	-11.1 ± 0.33	-9.23 ± 0.051		45.8 ± 0.71	65.75 ± 0.21	59.6	49.3 ± 1.4	68 ± 0.31	61.1 ± 1	53.433 ± 0.0017	69.13 ± 0.18	63.1 ± 0.69	56	70.55 ± 0.22	63.92 ± 0.4	57.4	71.88 ± 0.22	65.35 ± 0.083	60.5	72.82 ± 0.098	65.77 ± 0.2	61.75 ± 0.28	-67.8 ± 4.5	-69.4 ± 7.8	-40.7 ± 2.5	-172 ± 13	-180 ± 23	-97.4 ± 7.7	
